Measurements: article PMC4858697, “Crystal structure of TRAF1 TRAF domain and its implications in the TRAF1-mediated intracellular signaling pathway” (Scientific Reports, 2016)

B1: TANK peptide (SVPIQCTDKT) (peptide)
peptide: SVPIQCTDKT
notes: also called I-TRAF; source: synthetic peptide (Peptron, Dae-jeon, South Korea)
B2: human TRAF1 TRAF domain (residues 220-416), containing the TRAF-N coiled-coil domain and the TRAF-C domain (domain or fragment, UniProt Q13077 220-416, looked up)
chain: HQSQLDRERILSLEQRVVELQQTLAQKDQALGKLEQSLRLMEEASFDGTFLWKITNVTRRCHESACGRTVSLFSPAFYTAKYGYKLCLRLYLNGDGTGKRTHLSLFIVIMRGEYDALLPWPFRNKVTFMLLDQNNREHAIDAFRPDLSSASFQRPQSETNVASGCPLFFPLSKLQSPKHAYVKDDTMFLKCIVETST
notes: TNF-receptor associated factor 1 (TRAF1), human, TRAF domain, amino acids 220-416, cloned into pET24a; Trimer in the crystal and in solution (SEC, MALS); also called wildtype TRAF1; not shown: His-tag, C-terminal, kept

Columns and labels:
[1] = biological target: TANK peptide PEP (Homo sapiens) (UniProt Q92844); settings: cited from earlier work
TANK peptide PEP (Homo sapiens), sequence (Q92844 178-198): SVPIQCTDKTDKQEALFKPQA

[2] = biological target: B2; assay: ITC; NanoITC; 1 mM TANK peptide injected into ~20 uM wildtype or mutant TRAF1 in the cell; PBS; 15 °C; 25 injections; single site model; settings: both partners purified
[3] = biological target: the molecule itself; assay: SEC; Superdex 200 10/30 gel filtration in 20 mM sodium citrate pH 5.0, 1 M NaCl

Molecule: TRAF3 (from UniProt Q13114)
Kd [1]: 23.9 µM

Molecule: B1
Kd [2]: 13.6 µM

Molecule: B2
stoichiometry N [3]: 3
